The conditions of this data set: Vibrio harveyi; pH 7; 25 °C; Urea; CD; NaH2PO4/K2HPO4 50 mM; transition: 4; whole UniProt chain shown.

Where “and” joins values, the source holds several entries; their conditions need not be identical. Identical values can stand only once.

B1: Alkanal monooxygenase alpha chain wild type, P07740 (protein)
chain: MKFGNFLLTYQPPELSQTEVMKRLVNLGKASEGCGFDTVWLLEHHFTEFGLLGNPYVAAAHLLGATETLNVGTAAIVLPTAHPVRQAEDVNLLDQMSKGRFRFGICRGLYDKDFRVFGTDMDNSRALMDCWYDLMKEGFNEGYIAADNEHIKFPKIQLNPSAYTQGGAPVYVVAESASTTEWAAERGLPMILSWIINTHEKKAQLDLYNEVATEHGYDVTKIDHCLSYITSVDHDSNRAKDICRNFLGHWYDSYVNATKIFDDSDQTKGYDFNKGQWRDFVLKGHKDTNRRIDYSYEINPVGTPEECIAIIQQDIDATGIDNICCGFEANGSEEEIIASMKLFQSDVMPYLKEKQ
Turning to B1, the unfolding free energy is 4.5 kcal/mol and 2.8 kcal/mol.

Values taken from FireProtDB (doi:10.1021/bi012113g).
